assay: melting temperature; melt of duplexes; conditions: sodium 0.0675 M; strand 1 µM

Row | Substance | Tm
1 | CGACGTGCCGTATGTGCTG+CAGCACATGCCGCACGTCG ((((((((.(.((((((((+)))))))).).)))))))) | 51.6 °C
2 | CGACGTGCACGATGTGCTG+CAGCACATCTAGCACGTCG ((((((((..(((((((((+)))))))))..)))))))) | 51.3 °C
3 | CGACGTGCCTGATGTGCTG+CAGCACATGTCGCACGTCG ((((((((...((((((((+))))))))...)))))))) | 48 °C
4 | CGACGTGCCTTATGTGCTG+CAGCACATCGGGCACGTCG (((((((((..((((((((+))))))))..))))))))) | 53.1 °C
5 | CGACGTGCCTGATGTGCTG+CAGCACATATAGCACGTCG ((((((((...((((((((+))))))))...)))))))) | 49.8 °C
6 | CGACGTGCTCGATGTGCTG+CAGCACATGTGGCACGTCG ((((((((...((((((((+))))))))...)))))))) | 50.7 °C
7 | CGACGTGCGTGATGTGCTG+CAGCACATCAAGCACGTCG ((((((((.((((((((((+)))))))))).)))))))) | 58.6 °C
8 | CGACGTGCTCCATGTGCTG+CAGCACATGTAGCACGTCG (((((((((.(((((((((+))))))))).))))))))) | 56.3 °C
9 | CGACGTGCGACATGTGCTG+CAGCACATCAGGCACGTCG ((((((((...((((((((+))))))))...)))))))) | 49 °C
10 | CGACGTGCGGCATGTGCTG+CAGCACATCGCGCACGTCG (((((((((..((((((((+))))))))..))))))))) | 55.2 °C
11 | CGACGTGCCTTATGTGCTG+CAGCACATAAGGCACGTCG (((((((((((((((((((+))))))))))))))))))) | 62.9 °C
12 | CGACGTGCCCTATGTGCTG+CAGCACATTCGGCACGTCG (((((((((..((((((((+))))))))..))))))))) | 52.9 °C
13 | CGACGTGCAGGATGTGCTG+CAGCACATAAAGCACGTCG ((((((((...((((((((+))))))))...)))))))) | 50.6 °C
14 | CGACGTGCAACATGTGCTG+CAGCACATTTCGCACGTCG ((((((((.(.((((((((+)))))))).).)))))))) | 49 °C
15 | CGACGTGCTCAATGTGCTG+CAGCACATCACGCACGTCG ((((((((...((((((((+))))))))...)))))))) | 48.1 °C
16 | CGACGTGCATTATGTGCTG+CAGCACATTCAGCACGTCG ((((((((...((((((((+))))))))...)))))))) | 48.7 °C
17 | CGACGTGCAGTATGTGCTG+CAGCACATACCGCACGTCG ((((((((.((((((((((+)))))))))).)))))))) | 55.7 °C
18 | CGACGTGCCGCATGTGCTG+CAGCACATGCGGCACGTCG (((((((((((((((((((+))))))))))))))))))) | 69.1 °C
19 | CGACGTGCATCATGTGCTG+CAGCACATGCGGCACGTCG ((((((((..(((((((((+)))))))))..)))))))) | 52.7 °C
20 | CGACGTGCATAATGTGCTG+CAGCACATGCCGCACGTCG ((((((((...((((((((+))))))))...)))))))) | 50.9 °C
21 | CGACGTGCGGTATGTGCTG+CAGCACATCACGCACGTCG (((((((((..((((((((+))))))))..))))))))) | 56.7 °C
22 | CGACGTGCCCCATGTGCTG+CAGCACATTCGGCACGTCG (((((((((..((((((((+))))))))..))))))))) | 51.5 °C
23 | CGACGTGCCGTATGTGCTG+CAGCACATCAAGCACGTCG ((((((((...((((((((+))))))))...)))))))) | 49.3 °C
24 | CGACGTGCTAGATGTGCTG+CAGCACATTTCGCACGTCG ((((((((.(.((((((((+)))))))).).)))))))) | 50.1 °C

Row | Substance | Tm
25 | CGACGTGCTTCATGTGCTG+CAGCACATGTAGCACGTCG (((((((((.(((((((((+))))))))).))))))))) | 57 °C
26 | CGACGTGCAGAATGTGCTG+CAGCACATTTAGCACGTCG ((((((((..(((((((((+)))))))))..)))))))) | 53.3 °C
27 | CGACGTGCCCCATGTGCTG+CAGCACATGTGGCACGTCG (((((((((.(((((((((+))))))))).))))))))) | 58.8 °C
28 | CGACGTGCAATATGTGCTG+CAGCACATAGAGCACGTCG ((((((((..(((((((((+)))))))))..)))))))) | 52.7 °C
29 | CGACGTGCGTGATGTGCTG+CAGCACATATGGCACGTCG ((((((((...((((((((+))))))))...)))))))) | 50 °C
30 | CGACGTGCCATATGTGCTG+CAGCACATCGAGCACGTCG ((((((((...((((((((+))))))))...)))))))) | 49.8 °C
31 | CGACGTGCTCTATGTGCTG+CAGCACATACAGCACGTCG (((((((((.(((((((((+))))))))).))))))))) | 52.5 °C
32 | CGACGTGCGTAATGTGCTG+CAGCACATAGGGCACGTCG ((((((((...((((((((+))))))))...)))))))) | 51.1 °C
33 | CGACGTGCGATATGTGCTG+CAGCACATCACGCACGTCG (((((((((..((((((((+))))))))..))))))))) | 53.7 °C
34 | CGACGTGCGTTATGTGCTG+CAGCACATGACGCACGTCG ((((((((((.((((((((+)))))))).)))))))))) | 58.9 °C
35 | CGACGTGCTATATGTGCTG+CAGCACATAACGCACGTCG ((((((((..(((((((((+)))))))))..)))))))) | 50.8 °C
36 | CGACGTGCTGGATGTGCTG+CAGCACATCGTGCACGTCG ((((((((..(((((((((+)))))))))..)))))))) | 53.2 °C
37 | CGACGTGCCAAATGTGCTG+CAGCACATCGGGCACGTCG (((((((((..((((((((+))))))))..))))))))) | 54.3 °C
38 | CGACGTGCTTGATGTGCTG+CAGCACATGGAGCACGTCG (((((((((..((((((((+))))))))..))))))))) | 54 °C
39 | CGACGTGCCACATGTGCTG+CAGCACATTCGGCACGTCG (((((((((..((((((((+))))))))..))))))))) | 53.4 °C
40 | CGACGTGCACCATGTGCTG+CAGCACATACTGCACGTCG (((((((((..((((((((+))))))))..))))))))) | 44.9 °C
41 | CGACGTGCGAGATGTGCTG+CAGCACATCCCGCACGTCG (((((((((.(((((((((+))))))))).))))))))) | 60.3 °C
42 | CGACGTGCTCCATGTGCTG+CAGCACATGCTGCACGTCG ((((((((..(((((((((+)))))))))..)))))))) | 50.8 °C
43 | CGACGTGCCTAATGTGCTG+CAGCACATGCTGCACGTCG ((((((((...((((((((+))))))))...)))))))) | 46.9 °C
44 | CGACGTGCCACATGTGCTG+CAGCACATGACGCACGTCG ((((((((..(((((((((+)))))))))..)))))))) | 49.5 °C
45 | CGACGTGCAGCATGTGCTG+CAGCACATATCGCACGTCG ((((((((...((((((((+))))))))...)))))))) | 46.6 °C
46 | CGACGTGCTCTATGTGCTG+CAGCACATACTGCACGTCG ((((((((..(((((((((+)))))))))..)))))))) | 49.5 °C
47 | CGACGTGCATAATGTGCTG+CAGCACATTTTGCACGTCG (((((((((.(((((((((+))))))))).))))))))) | 56.1 °C
48 | CGACGTGCTCCATGTGCTG+CAGCACATACGGCACGTCG ((((((((...((((((((+))))))))...)))))))) | 47 °C

Row | Substance | Tm
49 | CGACGTGCCTAATGTGCTG+CAGCACATTTAGCACGTCG ((((((((..(((((((((+)))))))))..)))))))) | 51.5 °C
50 | CGACGTGCTTAATGTGCTG+CAGCACATCTCGCACGTCG ((((((((...((((((((+))))))))...)))))))) | 47.8 °C
51 | CGACGTGCCGCATGTGCTG+CAGCACATCCGGCACGTCG ((((((((((.((((((((+)))))))).)))))))))) | 58.2 °C
52 | CGACGTGCCAGATGTGCTG+CAGCACATTCGGCACGTCG (((((((((..((((((((+))))))))..))))))))) | 56.2 °C
53 | CGACGTGCGCGATGTGCTG+CAGCACATGGGGCACGTCG ((((((((.(.((((((((+)))))))).).)))))))) | 55.6 °C
54 | CGACGTGCGGTATGTGCTG+CAGCACATACCGCACGTCG (((((((((((((((((((+))))))))))))))))))) | 66 °C
55 | CGACGTGCGCGATGTGCTG+CAGCACATTTTGCACGTCG ((((((((...((((((((+))))))))...)))))))) | 48.9 °C
56 | CGACGTGCACAATGTGCTG+CAGCACATACGGCACGTCG ((((((((...((((((((+))))))))...)))))))) | 44.7 °C
57 | CGACGTGCGTAATGTGCTG+CAGCACATAAAGCACGTCG ((((((((.(.((((((((+)))))))).).)))))))) | 55 °C
58 | CGACGTGCAGCATGTGCTG+CAGCACATGCTGCACGTCG (((((((((((((((((((+))))))))))))))))))) | 66.1 °C
59 | CGACGTGCTAGATGTGCTG+CAGCACATCATGCACGTCG ((((((((..(((((((((+)))))))))..)))))))) | 55.6 °C
60 | CGACGTGCCGCATGTGCTG+CAGCACATTTGGCACGTCG (((((((((..((((((((+))))))))..))))))))) | 53.9 °C
61 | CGACGTGCATCATGTGCTG+CAGCACATTAAGCACGTCG ((((((((.(.((((((((+)))))))).).)))))))) | 48.6 °C
62 | CGACGTGCGTTATGTGCTG+CAGCACATCGCGCACGTCG (((((((((..((((((((+))))))))..))))))))) | 54.6 °C
63 | CGACGTGCCTAATGTGCTG+CAGCACATAGGGCACGTCG (((((((((..((((((((+))))))))..))))))))) | 55.4 °C
64 | CGACGTGCATTATGTGCTG+CAGCACATCAGGCACGTCG ((((((((.(.((((((((+)))))))).).)))))))) | 49.9 °C
65 | CGACGTGCGTGATGTGCTG+CAGCACATTACGCACGTCG ((((((((((.((((((((+)))))))).)))))))))) | 60.4 °C
66 | CGACGTGCGTGATGTGCTG+CAGCACATCCCGCACGTCG (((((((((.(((((((((+))))))))).))))))))) | 59.4 °C
67 | CGACGTGCCTTATGTGCTG+CAGCACATGCAGCACGTCG ((((((((...((((((((+))))))))...)))))))) | 49 °C
68 | CGACGTGCTATATGTGCTG+CAGCACATTGAGCACGTCG (((((((((..((((((((+))))))))..))))))))) | 52.9 °C
69 | CGACGTGCCTCATGTGCTG+CAGCACATTATGCACGTCG ((((((((.(.((((((((+)))))))).).)))))))) | 47.7 °C
70 | CGACGTGCAGAATGTGCTG+CAGCACATCAGGCACGTCG ((((((((...((((((((+))))))))...)))))))) | 51.1 °C
71 | CGACGTGCTGCATGTGCTG+CAGCACATGGAGCACGTCG (((((((((.(((((((((+))))))))).))))))))) | 61.2 °C
72 | CGACGTGCCGTATGTGCTG+CAGCACATTAGGCACGTCG (((((((((..((((((((+))))))))..))))))))) | 57.1 °C
